# Reference: patent EP4039268A1 (IMBA-Institut für Molekulare Biotechnologie GmbH, dated 2022)
# Columns and labels:
# Test in all cases: ELISA screen
# [1] = molecular target: T1, monomeric SARS-CoV-2 receptor binding domain (RBD-H6) (SARS-CoV-2, UniProt P0DTC2 319-541)
# T1 construct: Made in HEK293-6E cells; also called RBD Spike; monomeric RBD
# [2] = molecular target: T2, full-length trimeric SARS-CoV-2 Spike protein (Spike-H6) (SARS-CoV-2, N-glycosylated (22 N-glycosylation sites))
# T2 construct: also called trimeric Spike; full-length Spike-H6
# [3] = molecular target: T3, human recombinant soluble ACE2 (human, UniProt Q9BYF1 18-740)
# T3 construct: also called hrsACE2
# T3 sequence (Q9BYF1 18-740 limits assumed): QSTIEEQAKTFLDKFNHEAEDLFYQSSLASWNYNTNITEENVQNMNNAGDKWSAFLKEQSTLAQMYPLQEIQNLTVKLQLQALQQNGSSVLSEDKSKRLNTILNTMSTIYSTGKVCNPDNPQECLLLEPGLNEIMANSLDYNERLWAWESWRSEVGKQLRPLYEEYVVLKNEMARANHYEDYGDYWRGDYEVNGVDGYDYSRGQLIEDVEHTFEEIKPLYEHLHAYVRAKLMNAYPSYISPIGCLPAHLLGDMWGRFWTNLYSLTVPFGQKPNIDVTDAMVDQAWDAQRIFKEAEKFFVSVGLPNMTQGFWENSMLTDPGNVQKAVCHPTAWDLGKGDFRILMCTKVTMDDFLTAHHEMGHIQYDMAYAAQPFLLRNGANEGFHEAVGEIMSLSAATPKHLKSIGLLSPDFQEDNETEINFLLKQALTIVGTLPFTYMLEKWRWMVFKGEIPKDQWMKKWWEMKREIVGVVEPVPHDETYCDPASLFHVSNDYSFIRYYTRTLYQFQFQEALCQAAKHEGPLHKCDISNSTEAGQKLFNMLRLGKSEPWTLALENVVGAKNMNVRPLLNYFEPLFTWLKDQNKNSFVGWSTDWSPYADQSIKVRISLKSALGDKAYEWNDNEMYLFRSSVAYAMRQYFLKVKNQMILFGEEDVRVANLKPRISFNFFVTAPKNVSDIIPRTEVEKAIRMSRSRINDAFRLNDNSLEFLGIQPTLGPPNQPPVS
Binder,Mean normalized OD [1],Mean normalized OD [2],Mean normalized OD [3]
Mrc1_8 CRD-mouse IgG2a-Fc fusion protein (Fc fusion) FYGHCYYFESSFTRSWGQASLECLRMGASLVSIETAAESSFLSYRVEPLKSKTNFWIGMFRNVEGKWLWLNDNPVSFVNWKTGDPSGERNDCVVLASSSGLWNNIHCSSYKGFICKGGGSGGGSGGGS,0.019 OD,-0.057 OD,-0.021 OD
Ly75_3 CRD-mouse IgG2a-Fc fusion protein (Fc fusion) KDAESDKLCPPDEGWKRHGETCYKIYEKEAPFGTNCNLTITSRFEQEFLNYMMKNYDKSLRKYFWTGLRDPDSRGEYSWAVAQGVKQAVTFSNWNFLEPASPGGCVAMSTGKTLGKWEVKNCRSFRALSICKKGGGSGGGSGGGS,0.001 OD,0.002 OD,-0.003 OD
Ly75_9 CRD-mouse IgG2a-Fc fusion protein (Fc fusion) YKDGVYSVIQKKVTWYEALNACSQSGGELASVHNPNGKLFLEDIVNRDGFPLWVGLSSHDGSESSFEWSDGRAFDYVPWQSLQSPGDCVVLYPKGIWRREKCLSVKDGAICYKGGGSGGGSGGGS,0.004 OD,0.001 OD,-0.014 OD
Pla2r1_1 CRD-mouse IgG2a-Fc fusion protein (Fc fusion) SSRICYQFNLLSSLSWNQAHSSCLMQGGALLSIADEDEEDFIRKHLSKVVKEVWIGLNQLDEKAGWQWSDGTPLSYLNWSQEITPGPFVEHHCGTLEVVSAAWRSRDCESTLPYICKGGGSGGGSGGGS,0 OD,0 OD,-0.066 OD
Pkd1 CRD-mouse IgG2a-Fc fusion protein (Fc fusion) GNGHCYRLVAEKAPWLQAQEQCRTWAGAALAMVDSPAIQHFLVSKVTRSLDVWIGFSSVEGTEGLDPRGEAFSLESCQNWLPGEPHPATAEHCVRLGPAGQCNTDLCSAPHSYVCEGGGSGGGSGGGS,0 OD,0 OD,-0.01 OD
Ly75_10 CRD-mouse IgG2a-Fc fusion protein (Fc fusion) YGGHCYASDQVLHSFSEAKQVCQELDHSATVVTIADENENKFVSRLMRENYNITMRVWLGLSQHSLDQSWSWLDGLDVTFVKWENKTKDGDGKCSILIASNETWRKVHCSRGYARAVCKIGGGSGGGSGGGS,0.014 OD,-0.002 OD,-0.02 OD
Mrc1_5 CRD-mouse IgG2a-Fc fusion protein (Fc fusion) YKDYQYYFSKEKETMDNARAFCKKNFGDLATIKSESEKKFLWKYINKNGGQSPYFIGMLISMDKKFIWMDGSKVDFVAWATGEPNFANDDENCVTMYTNSGFWNDINCGYPNNFICQGGGSGGGSGGGS,0 OD,-0.001 OD,-0.004 OD
Pkd1l2 CRD-mouse IgG2a-Fc fusion protein (Fc fusion) not shown,0.001 OD,0.001 OD,-0.002 OD
Mrc2_6 CRD-mouse IgG2a-Fc fusion protein (Fc fusion) FLNKCFRIQGQDPQDRVKWSEAQFSCEQQEAQLVTIANPLEQAFITASLPNVTFDLWIGLHASQRDFQWIEQEPLLYTNWAPGEPSGPSPAPSGTKPTSCAVILHSPSAHFTGRWDDRSCTEETHGFICGGGSGGGSGGGS,0.006 OD,0.011 OD,-0.019 OD
Mrc1_6 CRD-mouse IgG2a-Fc fusion protein (Fc fusion) YKNKCFKIFGFANEEKKSWQDARQACKGLKGNLVSIENAQEQAFVTYHMRDSTFNAWTGLNDINAEHMFLWTAGQGVHYTNWGKGYPGGRRSSLSYEDADCVVVIGGNSREAGTWMDDTCDSKQGYICQGGGSGGGSGGGS,0.004 OD,0.004 OD,-0.001 OD
Lgalsl CRD-mouse IgG2a-Fc fusion protein (Fc fusion) PFCGHIKGGMRPGKKVLVMGIVDLNPESFAISLTCGDSEDPPADVAIELKAVFTDRQLLRNSCISGERGEEQSAIPYFPFIPDQPFRVEILCEHPRFRVFVDGHQLFDFYHRIQTLSAIDTIKINGDLQIGGGSGGGSGGGS,0.001 OD,0.006 OD,-0.004 OD
Klrk1 CRD-mouse IgG2a-Fc fusion protein (Fc fusion) HRNNCYQFFNEEKTWNQSQASCLSQNSSLLKIYSKEEQDFLKLVKSYHWMGLVQIPANGSWQWEDGSSLSYNQLTLVEIPKGSCAVYGSSFKAYTEDCANLNTYICMGGGSGGGSGGGS,0 OD,0 OD,-0.003 OD
Cd209b CRD-mouse IgG2a-Fc fusion protein (Fc fusion) FLLGNCYFFSKSQRNWNDAVTACKEVKAQLVIINSDEEQTFLQQTSKAKGPTWMGLSDLKKEATWLWVDGSTLSSRFQKYWNRGEPNNIGEEDCVEFAGDGWNDSKCELKKFWICKGGGSGGGSGGGS,0.113 OD,-0.032 OD,-0.094 OD
Ly75_7 CRD-mouse IgG2a-Fc fusion protein (Fc fusion) YLNNLYKIISKPLTWHGALKECMKEKMRLVSITDPYQQAFLAVQATLRNSSFWIGLSSQDDELNFGWSDGKRLQFSNWAGSNEQLDDCVILDTDGFWKTADCDDNQPGAICYYGGGSGGGSGGGS,0.003 OD,0.001 OD,-0.009 OD
Ly75_4 CRD-mouse IgG2a-Fc fusion protein (Fc fusion) SSLSCYKVFHIERIVRKRNWEEAERFCQALGAHLPSFSRREEIKDFVHLLKDQFSGQRWLWIGLNKRSPDLQGSWQWSDRTPVSAVMMEPEFQQDFDIRDCAAIKVLDVPWRRVWHLYEDKDYAYWKPFACDAKLEWVCQGGGSGGGSGGGS,0.007 OD,-0.014 OD,-0.004 OD
Pla2r1_2 CRD-mouse IgG2a-Fc fusion protein (Fc fusion) FNRKCYKLKKDRKSWLGALHSCQSNDSVLMDVASLAEVEFLVSLLRDENASETWIGLSSNKIPVSFEWSSGSSVIFTNWYPLEPRILPNRRQLCVSAEESDGRWKVKDCKERLFYICKGGGSGGGSGGGS,0.011 OD,0.001 OD,-0.019 OD
Mrc2_5 CRD-mouse IgG2a-Fc fusion protein (Fc fusion) FQEAEYKFFEHHSSWAQAQRICTWFQADLTSVHSQAELDFLGQNLQKLSSDQEQHWWIGLHTLESDGRFRWTDGSIINFISWAPGKPRPIGKDKKCVYMTARQEDWGDQRCHTALPYICKGGGSGGGSGGGS,0.002 OD,-0.002 OD,-0.005 OD
Klri1 CRD-mouse IgG2a-Fc fusion protein (Fc fusion) FGNNFYCVFKENTKTWAESQSACEELNSHLVIIDSKAEVENLLLFEMDGWILHKMDGTNSSWLWRNDIKIQNTLTNDSEKKNHSCHYLRGNLFMPDECSAKKSYICEGGGSGGGSGGGS,0.001 OD,0.002 OD,-0.003 OD
Pla2r1_8 CRD-mouse IgG2a-Fc fusion protein (Fc fusion) FKGNCYSFSTVLDSRSFEDAHEFCKSEGSNLLAIRDAAENSFLLEELLAFGSSVQMVWLNAQFDNNNKTLRWFDGTPTEQSNWGLRKPDMDHLKPHPCVVLRIPEGIWHFTPCEDKKGFICKGGGSGGGSGGGS,0.019 OD,-0.002 OD,-0.005 OD
Mrc1_3 CRD-mouse IgG2a-Fc fusion protein (Fc fusion) HGFYCYLIGSTLSTFTDANHTCTNEKAYLTTVEDRYEQAFLTSLVGLRPEKYFWTGLSDVQNKGTFRWTVDEQVQFTHWNADMPGRKAGCVAMKTGVAGGLWDVLSCEEKAKFVCKGGGSGGGSGGGS,0.038 OD,0.037 OD,-0.064 OD
Layn CRD-mouse IgG2a-Fc fusion protein (Fc fusion) TRRPCYKVIYFHDAFQRLNFEEAKETCMEDGGQLVSIETEDEQRLIEKFIENLLASDGDFWIGLKRLEEKQSNNTACQDLYAWTDGSTSQFRNWYVDEPSCGSEVCVVMYHQPSAPPGIGGSYMFQWNDDRCNMKNNFICKGGGSGGGSGGGS,0 OD,0.002 OD,-0.005 OD
Cd209e CRD-mouse IgG2a-Fc fusion protein (Fc fusion) FFNGNCYFFSKSQRDWHDSMTACKEMGAQLVIIKSHEEQSFLQQTSKKNSYTWMGLSDLNKEGEWYWLDGSPLSDSFEKYWKKGQPNNVGGQDCVEFRDNGWNDAKCEQRKFWICKGGGSGGGSGGGS,0.048 OD,0.045 OD,-0.016 OD
Mrc2_8 CRD-mouse IgG2a-Fc fusion protein (Fc fusion) FREHCYSFHMEVLLGHKEALQRCQKAGGTVLSILDEMENVFVWEHLQTAEAQSRGAWLGMNFNPKGGTLVWQDNTAVNYSNWGPPGLGPSMLSHNSCYWIQSSSGLWRPGACTNITMGVVCGGGSGGGSGGGS,0.003 OD,0 OD,-0.001 OD
Mrc1_7 CRD-mouse IgG2a-Fc fusion protein (Fc fusion) YGKSSYSLMKLKLPWHEAETYCKDHTSLLASILDPYSNAFAWMKMHPFNVPIWIALNSNLTNNEYTWTDRWRVRYTNWGADEPKLKSACVYMDVDGYWRTSYCNESFYFLCKGGGSGGGSGGGS,0.02 OD,-0.002 OD,-0.008 OD
